The chains are these.
T1: human GIP receptor (human, UniProt P48546 22-466)
T1 sequence (looked up): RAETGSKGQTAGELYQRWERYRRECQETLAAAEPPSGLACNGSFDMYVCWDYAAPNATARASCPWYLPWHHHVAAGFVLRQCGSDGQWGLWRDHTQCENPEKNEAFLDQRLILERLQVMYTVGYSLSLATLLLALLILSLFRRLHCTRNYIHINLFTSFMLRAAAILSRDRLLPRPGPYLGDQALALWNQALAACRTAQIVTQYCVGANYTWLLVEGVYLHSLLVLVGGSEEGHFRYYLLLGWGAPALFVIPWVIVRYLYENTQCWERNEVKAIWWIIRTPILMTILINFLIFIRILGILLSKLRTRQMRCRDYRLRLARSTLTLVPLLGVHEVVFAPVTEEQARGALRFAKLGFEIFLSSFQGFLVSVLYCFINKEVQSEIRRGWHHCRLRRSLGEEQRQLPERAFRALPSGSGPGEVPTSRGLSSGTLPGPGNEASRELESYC

T2: mouse GIP receptor (mouse, UniProt Q0P543 19-460)
T2 sequence (looked up): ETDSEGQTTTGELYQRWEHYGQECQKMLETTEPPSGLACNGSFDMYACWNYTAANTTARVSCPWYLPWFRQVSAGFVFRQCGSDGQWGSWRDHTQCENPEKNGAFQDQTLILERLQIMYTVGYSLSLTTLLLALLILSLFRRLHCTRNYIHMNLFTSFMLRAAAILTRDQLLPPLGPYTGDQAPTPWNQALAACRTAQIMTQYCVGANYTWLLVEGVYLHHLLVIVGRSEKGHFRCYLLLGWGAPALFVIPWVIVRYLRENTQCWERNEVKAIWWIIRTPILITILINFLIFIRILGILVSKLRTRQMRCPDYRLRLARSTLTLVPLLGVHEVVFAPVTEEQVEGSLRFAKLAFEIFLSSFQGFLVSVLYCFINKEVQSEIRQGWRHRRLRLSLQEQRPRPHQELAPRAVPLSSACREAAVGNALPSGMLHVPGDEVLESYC

T3: rat GIP receptor (rat, UniProt P43219 19-455)
T3 sequence (looked up): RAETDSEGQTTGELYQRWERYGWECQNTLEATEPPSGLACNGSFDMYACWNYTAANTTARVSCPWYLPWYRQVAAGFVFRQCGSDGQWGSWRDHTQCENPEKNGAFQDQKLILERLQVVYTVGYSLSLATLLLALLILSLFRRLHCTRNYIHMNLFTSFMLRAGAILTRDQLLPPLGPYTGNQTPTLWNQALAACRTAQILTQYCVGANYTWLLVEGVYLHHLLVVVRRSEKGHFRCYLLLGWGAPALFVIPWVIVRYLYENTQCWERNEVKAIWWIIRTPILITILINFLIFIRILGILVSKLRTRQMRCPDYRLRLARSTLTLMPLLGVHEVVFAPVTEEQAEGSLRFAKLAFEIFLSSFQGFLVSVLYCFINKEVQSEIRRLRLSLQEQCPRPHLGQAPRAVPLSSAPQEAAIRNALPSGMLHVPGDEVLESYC

T4: rat GLP-1 receptor (rat, UniProt P32301 22-463)
T4 sequence (looked up): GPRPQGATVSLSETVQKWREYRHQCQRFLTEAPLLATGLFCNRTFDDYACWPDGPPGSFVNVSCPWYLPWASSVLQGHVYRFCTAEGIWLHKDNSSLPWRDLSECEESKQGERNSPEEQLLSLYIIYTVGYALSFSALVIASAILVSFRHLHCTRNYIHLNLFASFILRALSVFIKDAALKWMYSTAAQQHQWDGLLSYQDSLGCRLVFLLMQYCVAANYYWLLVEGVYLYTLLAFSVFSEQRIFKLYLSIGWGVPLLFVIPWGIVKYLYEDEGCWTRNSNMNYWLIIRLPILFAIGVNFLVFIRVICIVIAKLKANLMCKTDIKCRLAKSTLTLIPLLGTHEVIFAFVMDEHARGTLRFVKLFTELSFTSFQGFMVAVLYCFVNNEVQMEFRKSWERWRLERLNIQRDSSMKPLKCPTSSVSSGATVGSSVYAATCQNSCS

T5: mouse GLP-1 receptor (mouse, UniProt O35659 22-463)
T5 sequence (looked up): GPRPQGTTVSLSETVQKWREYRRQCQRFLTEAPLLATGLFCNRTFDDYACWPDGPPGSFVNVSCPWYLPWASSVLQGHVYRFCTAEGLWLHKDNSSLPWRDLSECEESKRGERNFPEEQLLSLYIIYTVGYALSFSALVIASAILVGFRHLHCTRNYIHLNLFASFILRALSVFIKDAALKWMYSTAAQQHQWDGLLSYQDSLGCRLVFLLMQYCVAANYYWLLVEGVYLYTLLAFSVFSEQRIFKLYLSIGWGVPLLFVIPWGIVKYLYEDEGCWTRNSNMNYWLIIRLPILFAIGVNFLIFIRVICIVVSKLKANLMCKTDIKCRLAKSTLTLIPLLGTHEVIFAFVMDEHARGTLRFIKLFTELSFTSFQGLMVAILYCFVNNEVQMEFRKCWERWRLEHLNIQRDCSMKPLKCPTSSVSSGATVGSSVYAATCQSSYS

B1: IP258 (Fc fusion)
chain: YSEGTFTSDYSKLLDEEAVRLFIEWLVKGPGGGGGSGGGGSGGGGSGGGGSATHTCPPCPAPEF
B2: IP264 (Fc fusion)
chain: B1 chain with D15E, P30K
B3: IP262 (Fc fusion)
chain: B1 chain with D15E, V27L
B4: IP263 (Fc fusion)
chain: B1 chain with D15E, G29Q
B5: IP259 (Fc fusion)
chain: B1 chain with D15E, E16K
B6: IP261 (Fc fusion)
chain: B1 chain with D15E, I23V
B7: IP260 (Fc fusion)
chain: B1 chain with D15E, R20Q
B8: IP131 (Fc fusion)
chain: YSEGTFTSDYSKLLEEEAVRLFIEWLLAGGGGGGSGGGGSGGGGSGGGGSATHTCPPCPAPEF
B9: IP266 (Fc fusion)
chain: B8 chain with G30A, G31P, G32P
B10: IP201 (Fc fusion)
chain: YSEGTFTSDYSKLLEEEAVRLFIEWLLAGPSSGAPPPSAAAGGSGSTASSGSGSATGGGGAATHTCPPCPAPEF
B11: IP212 (Fc fusion)
chain: YSEGTFTSDYSKLLEEEAVREFIAWLVKGPAAAGGSGSTASSGSGSATGGGGAATHTCPPCPAPEF
B12: IP200 (Fc fusion)
chain: B11 chain with E3Q, L13I, E21L, A24E
B13: IP253 (Fc fusion)
chain: YSEGTFTSDYSKLLDEEAVRLFIEWLLAGAPPGGSGSTASSGSGSATGGGGAATHTCPPCPAPEF

Residue numbers refer to the chain shown, from its start.

The first assay deals with human GLP-1 receptor (human, UniProt P43220 24-463). In words: cell-based or functional assay.
As for B1, the “cAMP EC50” value was determined as 0.42 nM.

B2: the “cAMP EC50” value was determined as 0.1 nM.

B3: the “cAMP EC50” value came out at 0.21 nM.

Regarding B4, the “cAMP EC50” value worked out at 0.14 nM.

For B5, the “cAMP EC50” value came to 0.1 nM.

Consider B6, for which the “cAMP EC50” value worked out at 0.14 nM.

B7: the “cAMP EC50” value is 0.91 nM.

As to B8, the “cAMP EC50” value amounted to 0.1 nM.

For the molecule B9, the “cAMP EC50” value stood at 0.15 nM.

Regarding B10, the “cAMP EC50” value worked out at 0.2 nM and the “cAMP EC50, Batch 2” value was determined as 0.56 nM.

As for B11, the “cAMP EC50” value was found to be 0.087 nM.

On to B12, for which the “cAMP EC50” value is 0.12 nM and the “cAMP EC50, Batch 2” value came out at 0.077 nM.

In the case of B13, the “cAMP EC50” value was 0.26 nM.

In the next assay the target is human glucagon receptor (human, UniProt P47871 26-477). In words: cell-based or functional assay.
Regarding B1, the “cAMP EC50” value was above 19000 nM.

For the molecule B2, the “cAMP EC50” value was above 9800 nM.

Take B3: the “cAMP EC50” value turned out to be 63 nM.

B4: the “cAMP EC50” value was above 18000 nM.

Turning to B5, the “cAMP EC50” value is above 480 nM.

B6: the “cAMP EC50” value is above 2400 nM.

For the molecule B7, the “cAMP EC50” value is above 16000 nM.

For B8, the “cAMP EC50” value is 23 nM.

Take B9: the “cAMP EC50” value amounted to 16 nM.

B10: the “cAMP EC50” value amounted to 3.9 nM and the “cAMP EC50, Batch 2” value was determined as 11 nM.

Consider B11, for which the “cAMP EC50” value is above 4000 nM.

On to B12, for which the “cAMP EC50” value stood at 0.11 nM and the “cAMP EC50, Batch 2” value worked out at 0.083 nM.

For B13, the “cAMP EC50” value came to 78 nM.

The next assay deals with T1, human GIP receptor. Briefly: cell-based or functional assay.
Turning to B1, the “cAMP EC50” value was determined as 0.039 nM.

With B2, the “cAMP EC50” value was 0.017 nM.

For B3, the “cAMP EC50” value amounted to 0.01 nM.

For B4, the “cAMP EC50” value came out at 0.027 nM.

In the case of B5, the “cAMP EC50” value was 0.027 nM.

B6: the “cAMP EC50” value was determined as 0.03 nM.

In the case of B7, the “cAMP EC50” value is 0.033 nM.

For B8, the “cAMP EC50” value amounted to 0.0091 nM.

Regarding B9, the “cAMP EC50” value turned out to be 0.012 nM.

B10: the “cAMP EC50” value was 0.011 nM and the “cAMP EC50, Batch 2” value is 0.034 nM.

For B11, the “cAMP EC50” value turned out to be 0.0081 nM.

Take B12: the “cAMP EC50” value worked out at 0.018 nM and the “cAMP EC50, Batch 2” value was found to be 0.012 nM.

For the molecule B13, the “cAMP EC50” value turned out to be 0.0093 nM.

Another assay addresses T2, mouse GIP receptor. Briefly: cell-based or functional assay.
In the case of B1, the “cAMP EC50” value was determined as 870 nM.

As to B2, the “cAMP EC50” value was 97 nM.

Take B3: the “cAMP EC50” value was 3 nM.

B4: the “cAMP EC50” value was found to be 7000 nM.

In the case of B5, the “cAMP EC50” value is 12 nM.

For B6, the “cAMP EC50” value came to 230 nM.

Regarding B7, the “cAMP EC50” value worked out at 2400 nM.

For B8, the “cAMP EC50” value turned out to be 5.1 nM.

Take B9: the “cAMP EC50” value is 0.3 nM.

As to B10, the “cAMP EC50” value was found to be 4.3 nM and the “cAMP EC50, Batch 2” value came out at 1.6 nM.

For the molecule B11, the “cAMP EC50” value stood at 190 nM.

As to B12, the “cAMP EC50, Batch 2” value came out at 160 nM.

Regarding B13, the “cAMP EC50” value was determined as 0.61 nM.

In another assay the target is T3, rat GIP receptor. In words: cell-based or functional assay.
As for B1, the “cAMP EC50” value is 1.5 nM.

On to B2, for which the “cAMP EC50” value amounted to 0.094 nM.

As for B3, the “cAMP EC50” value was determined as 0.019 nM.

Consider B4, for which the “cAMP EC50” value stood at 1.1 nM.

In the case of B5, the “cAMP EC50” value is 0.033 nM.

Consider B6, for which the “cAMP EC50” value came out at 0.27 nM.

As for B7, the “cAMP EC50” value stood at 0.45 nM.

As to B8, the “cAMP EC50” value worked out at 0.23 nM.

Turning to B9, the “cAMP EC50” value stood at 0.038 nM.

On to B10, for which the “cAMP EC50” value was determined as 0.23 nM and the “cAMP EC50, Batch 2” value amounted to 0.019 nM.

For B11, the “cAMP EC50” value came to 0.12 nM.

For the molecule B12, the “cAMP EC50, Batch 2” value stood at 0.25 nM.

For B13, the “cAMP EC50” value amounted to 0.024 nM.

Another assay concerns the target T4, rat GLP-1 receptor. Briefly: cell-based or functional assay.
Consider B1, for which the “cAMP EC50” value is 0.12 nM.

On to B2, for which the “cAMP EC50” value amounted to 0.026 nM.

Regarding B3, the “cAMP EC50” value came to 0.036 nM.

In the case of B4, the “cAMP EC50” value was determined as 0.042 nM.

B5: the “cAMP EC50” value stood at 0.029 nM.

In the case of B6, the “cAMP EC50” value worked out at 0.028 nM.

Regarding B7, the “cAMP EC50” value was 0.25 nM.

Regarding B8, the “cAMP EC50” value came out at 0.1 nM.

Turning to B9, the “cAMP EC50” value is 0.3 nM.

As to B10, the “cAMP EC50” value is 0.098 nM and the “cAMP EC50, Batch 2” value was 0.028 nM.

For the molecule B11, the “cAMP EC50” value turned out to be 0.034 nM.

Consider B12, for which the “cAMP EC50, Batch 2” value is 0.028 nM.

On to B13, for which the “cAMP EC50” value came out at 0.21 nM.

The target in the next assay is T5, mouse GLP-1 receptor. Briefly: cell-based or functional assay.
In the case of B1, the “cAMP EC50” value came to 2.3 nM.

Regarding B2, the “cAMP EC50” value is 0.3 nM.

On to B3, for which the “cAMP EC50” value is 0.53 nM.

As for B4, the “cAMP EC50” value is 0.96 nM.

B5: the “cAMP EC50” value turned out to be 0.31 nM.

As to B6, the “cAMP EC50” value came to 0.34 nM.

Consider B7, for which the “cAMP EC50” value is 5.3 nM.

Consider B8, for which the “cAMP EC50” value came out at 1 nM.

As to B9, the “cAMP EC50” value came to 0.76 nM.

As to B10, the “cAMP EC50” value stood at 0.65 nM and the “cAMP EC50, Batch 2” value was found to be 0.41 nM.

For the molecule B11, the “cAMP EC50” value stood at 0.35 nM.

Turning to B12, the “cAMP EC50, Batch 2” value was 0.34 nM.

For B13, the “cAMP EC50” value came out at 3.8 nM.
